{"source": "patent US20130101601A1", "about": "(ANAPTYSBIO, published 2013)", "binders": {"B1": {"name": "APE391 (antibody, V domains shown)", "VH": "QVQLVQSGAEVKKPGSSVKVSCKASGGTFSNYAISWVRQAPGQGLEWMGGIIPIFGTANYAQKFQGRVTITADESTSTAYMELSSLRSEDTAVYYCARGPEYYDYVWGSYRYNYFDYWGQGTLVTV", "VL": "not shown", "notes": "Fully human IgG; also called HC/LC pair from SCC C10A"}, "B2": {"name": "APE583 (antibody, V domains shown)", "VH": "B1 VH with L45F", "VL": "not shown", "notes": "APE391 with the HC mutation L45F"}, "B3": {"name": "APE803 (antibody, V domains shown)", "VH": "QVQLVQSGAEVKKPGSSVKVSCKASGDTFSNYATGDTFSNYAISWVRQAPGQGFEWMGGIIPIFGTANYAQKFQGRVTITADESTSTAYMELSSLRSEDTAVYYCARGPEYYAYVWGSYRYNYFDYWGQGTLVTV", "VL": "not shown", "notes": "HC CDR3 mutation D100A in the context of the APE646 variant"}, "B4": {"name": "APE925 (antibody, V domains shown)", "VH": "B3 VH with S30N, G53R, G65D, S86N, R120S", "VL": "not shown"}}, "key": {"[1]": {"target": "T1, human βNGF (Nerve Growth Factor) (human, UniProt P01138 122-241, limits assumed)", "T1 construct": "In the FACS rounds it was used biotinylated, fluorochrome-labelled or fused to wasabi fluorescent protein; The construct used in the Biacore runs is not described; also called hβNGF", "T1 sequence (P01138 122-241 limits assumed)": "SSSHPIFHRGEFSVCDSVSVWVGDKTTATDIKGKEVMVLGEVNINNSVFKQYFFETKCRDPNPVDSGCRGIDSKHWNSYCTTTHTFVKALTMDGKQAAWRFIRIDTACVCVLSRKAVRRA", "assay": "Biacore and flow cytometry-based antigen-binding assays"}, "[2]": {"target": "T1, human βNGF (Nerve Growth Factor)", "assay": "kinetic characterization (Biacore)"}, "[3]": {"target": "T1, human βNGF (Nerve Growth Factor)", "assay": "Biacore, purified antibody captured at low density (Rmax<30)", "from_the_text": "Mutations observed in both strategies not utilized by APE803 were recombined by overlap extension PCR in a combinatorial library, each HC/LC pair was expressed and characterized on Biacore utilizing direct capture of secreted antibodies."}}, "note": "Numbering of substitutions follows the chain as printed. In names and notes the source's numbering stands."}
{"binder": "B1", "values": [{"measurement": "binding result", "setting": "[1]", "value": "binds"}]}
{"binder": "B2", "values": [{"measurement": "binding result", "setting": "[2]", "value": "binds"}]}
{"binder": "B3", "values": [{"measurement": "Kd", "setting": "[2]", "value": 0.76, "unit": "nM"}, {"measurement": "fold improvement in kon (against APE646)", "setting": "[2]", "value": 100, "unit": "fold"}]}
{"binder": "B4", "values": [{"measurement": "Kd", "setting": "[3]", "value": 0.025, "unit": "nM"}]}
